Assay: folding stability dG unfold (combined trypsin and chymotrypsin); higher = more stable
Method: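 Folding stability of de novo designed mini-proteins (<80 aa, no Cys; designed by TrROS, TrMRF, ProteinMPNN and the joint model) was measured by cDNA display proteolysis with trypsin and chymotrypsin. Each protease was used at 11 concentrations in a threefold dilution series plus a no-protease condition. K50 was inferred by Bayesian fitting of sequencing counts, and dG unfold was derived against a sequence-predicted unfolded-state K50 (Tsuboyama et al. method). Sequences shown include variable-length N-terminal GS-type padding (SAGGSAGG...) inside a display construct carrying a PA tag. Rows were kept only if the AF2 dimer inter-PAE was >15, to exclude likely homo-oligomers.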

Sequence	folding stability dG unfold
SAGGSAGGSAGGGKNRPVIPITEGDKDEAKEFADTFQKEWRRQNGEPAQNVDIDIVPTPSAGGSAGGSAGGS [r10_1216_TrROS]	< -1 kcal/mol
SAGGSAGGSAGGGKVYVFRAPDALVLVPVEENPDTDEFTVTVDPGGDDPDIAKKLAEALSAGGSAGGSAGGS [r10_582_TrMRF]	< -1 kcal/mol
SAGGSAGGSAGGGMTVEEDPSSNIVTERIEYPDSIVTITRKRTPNPSWVTLATTTTPLGSAGGSAGGSAGGS [r10_840_JUSTAS]	< -1 kcal/mol
SAGGSAGGSAGGGPGLSVTTTVLVPKDPSTSVLTVPLPPSATVTAVTPETNTVTVRTASSAGGSAGGSAGGS [r10_247_JUSTAS]	< -1 kcal/mol
SAGGSAGGSAGGGPMVTRTIPRGVVVTKAELKDDKPVKYTVVKEEPVPVTVRALPEELLSAGGSAGGSAGGS [r10_492_JUSTAS]	< -1 kcal/mol
SAGGSAGGSAGGGSSMPLIPRKIETVEKPFRLPNGDVVIETTEIDTDADVEIPSVEVVLKSAGGSAGGSAGG [r7_213_JUSTAS]	< -1 kcal/mol
SAGGSAGGSAGGGVRIKVEYPNNGQPHEFPIDENWTAESIKDKLEDRGLPPNHKITKIEPSAGGSAGGSAGG [r7_70_TrROS]	< -1 kcal/mol
SAGGSAGGSAGGIYEKAVEFAKAKGGKDIPVKIKYPDGSVKTLNVDDLPDLKSENVEIVPSAGGSAGGSAGG [r7_863_TrMRF]	< -1 kcal/mol
SAGGSAGGSAGGKIEVDVETERHDGRPYYEVEIRHPDNGKPVEIPMPMNNPEEALKAAKSAGGSAGGSAGGS [r10_271_TrROS]	< -1 kcal/mol
SAGGSAGGSAGGKIEVEEDPANGMYRVEIQFPENGKPIEVWVRPGRTLEKAKDKAKELMKSAGGSAGGSAGG [r7_138_TrROS]	< -1 kcal/mol
SAGGSAGGSAGGLTEEEILKKLGLSPDVELLEMPREPERGVYYVKVKKGEGPEEFVVEESAGGSAGGSAGGS [r10_17_JUSTAS]	< -1 kcal/mol
SAGGSAGGSAGGMELPNLVPVETVPVGDSTVRLYELPGKPLRVTVTENGDNVTVELEEPPSAGGSAGGSAGG [r7_940_JUSTAS]	< -1 kcal/mol
SAGGSAGGSAGGMKVVFNIHRPDSDEVLTVDDMEKLKETSLEELAKKLEEENGYPVEVVLSAGGSAGGSAGG [r7_259_JUSTAS]	< -1 kcal/mol
SAGGSAGGSAGGMLPNPKTIKVPLKPGETKEKVKEEAEKKFPPGKITVTVSEDGTATVLVSAGGSAGGSAGG [r7_273_JUSTAS]	< -1 kcal/mol
SAGGSAGGSAGGMRISIHHPKNGNPRHIPIDDIRNLPGPYKIHVEGPNPELAKEFLEQFSAGGSAGGSAGGS [r10_419_TrROS]	< -1 kcal/mol
SAGGSAGGSAGGMTVKEIAEKLGLPPGLKVEDIPLDPPNGYFEIEITHDDGPHTYRIPISAGGSAGGSAGGS [r10_17_TrROS]	< -1 kcal/mol
SAGGSAGGSAGGMVSISVSEDPATGTYTVTATRTGAPRTVTVPVGASEAEARARVEAALSAGGSAGGSAGGS [r10_192_JUSTAS]	< -1 kcal/mol
SAGGSAGGSAGGNKIVIPFEELEEARENGDPHKARKLVRERGMDPEDVTIEIITPEALKESAGGSAGGSAGG [r7_7_TrROS]	< -1 kcal/mol
SAGGSAGGSAGGPERLVLASFIPGPRLLHVVEVSLDGVGASISPSVFSIHPDRPDEIEPVSAGGSAGGSAGG [r7_866_TrMRF]	< -1 kcal/mol
SAGGSAGGSAGGPIKIDVQVMPHDNEWYIMIRREYPYPDGKRQEREIMIPADNVKDLDDISAGGSAGGSAGG [r7_835_TrROS]	< -1 kcal/mol
SAGGSAGGSAGGPKIEIPMVHLHPNGTITVMRMKMEYDPNGKFEIKKMEMHTVPADDIKDSAGGSAGGSAGG [r7_521_TrROS]	< -1 kcal/mol
SAGGSAGGSAGGPNPRIIPLTFPVKDKEAVILLPPGVKPASIEVDPEDGRIRVNAVDPLSAGGSAGGSAGGS [r10_906_TrMRF]	< -1 kcal/mol
SAGGSAGGSAGGPPFQIHIRDKGEERTIPVDSPDDIKELLEEKGAEIKDVHPNSGTITVKSAGGSAGGSAGG [r7_726_TrROS]	< -1 kcal/mol
SAGGSAGGSAGGPPPEKAAAYLVKYRNPDGGPLGTRPVELPPDRPEVEHDPSFVSVEVASAGGSAGGSAGGS [r10_675_JUSTAS]	< -1 kcal/mol
SAGGSAGGSAGGPTVTYKPPSGNVRTVEVPASRPEVVAELKAAGGEVVVVDAETGEEVLLSAGGSAGGSAGG [r7_430_JUSTAS]	< -1 kcal/mol
SAGGSAGGSAGGQPITLPDANNGFKEVEIMPTPKKWRITAENPETGQKKEFPIEDPEAVSAGGSAGGSAGGS [r10_772_TrROS]	< -1 kcal/mol
SAGGSAGGSAGGRGVLLVFRLDGEVRPTPDGEPVLELTDLEVEEREVTVTRDADGVLHAGSAGGSAGGSAGG [r11_381_TrMRF]	< -1 kcal/mol

Sequence	folding stability dG unfold
SAGGSAGGSAGGSGELELTVVSPLPDGTVKVTRYRVELPEDGLEITEVETEEVPPEEAGSAGGSAGGSAGGS [r4_389_TrMRF]	< -1 kcal/mol
SAGGSAGGSAGGSGELTMMMVEPNPDGRVKVRTFKIELPPGGLKIDEVEEKTIPPEDAKSAGGSAGGSAGGS [r4_389_TrROS]	< -1 kcal/mol
SAGGSAGGSAGGSGNFTIDPALLEEARAEAAAAGEALETIPLKVTRPGGETKTIDIKVGSAGGSAGGSAGGS [r4_367_JUSTAS]	< -1 kcal/mol
SAGGSAGGSAGGSGNGMKLVKKKEVVKEEGAVVKLPNGETIEVPPDETITVEIEEEVSLSAGGSAGGSAGGS [r4_26_JUSTAS]	< -1 kcal/mol
SAGGSAGGSAGGSGSMEPQVVLRVTDTRGGNPTVTIYSPDVPLPPSPTTTVEPRPVSLESAGGSAGGSAGGS [r4_107_JUSTAS]	< -1 kcal/mol
SAGGSAGGSAGGSMKISLEFKVPIYEEFPGKEKPVEEVEVPVEVPENNEEEAEKIKKELSAGGSAGGSAGGS [r4_153_JUSTAS]	< -1 kcal/mol
SAGGSAGGSAGGSMVAYITTKGKKLEIEVPEDLPEEIKEELKKKGIPIESITFEEVEPESAGGSAGGSAGGS [r10_405_JUSTAS]	< -1 kcal/mol
SAGGSAGGSAGGSMVTTKDPNSPVTYTLVPRPTPEELVVKTTTNPDGTPTVTLLPASLLSAGGSAGGSAGGS [r4_434_JUSTAS]	< -1 kcal/mol
SAGGSAGGSAGGSMYRIEIKMPNNPRTIWVPPDELPDDDLEEIAKENFPNIDKIKVWRWSAGGSAGGSAGGS [r4_235_TrROS]	< -1 kcal/mol
SAGGSAGGSAGGSPEELAAAIRAEGREAEIEVTPDEVTIRLTAPDGRRSTLTVPRAALASAGGSAGGSAGGS [r10_1029_JUSTAS]	< -1 kcal/mol
SAGGSAGGSAGGSPFTIRNPNGMQVRIDDFDPEEGKVKIEIEMPNKPVEYPIPLDDIIFSAGGSAGGSAGGS [r4_110_TrROS]	< -1 kcal/mol
SAGGSAGGSAGGSPMLLVRVKKTNKWISLEEALEEAEKKGEEIEIEEVEVVELPPGQEPSAGGSAGGSAGGS [r4_479_TrROS_Hall]	< -1 kcal/mol
SAGGSAGGSAGGSQNEVQIPFNNMPPQQARNIADEALDKNKDIENIEVERDDGMFKVKVSAGGSAGGSAGGS [r4_330_TrROS]	< -1 kcal/mol
SAGGSAGGSAGGSRKINIFFDDPEQARKFAREIRNEGLPPEDMPIKVEITPIPPEDMGASAGGSAGGSAGGS [r4_281_TrROS]	< -1 kcal/mol
SAGGSAGGSAGGSTPSGTLKEVSEEVEPDGIRITTTTYSLPNPGVFKTVVTVEPEAREESAGGSAGGSAGGS [r4_163_JUSTAS]	< -1 kcal/mol
SAGGSAGGSAGGSVKTPEGVEVAPDEPVEERVEHPPVARPVKVTLYALPNSNEYSEEIASAGGSAGGSAGGS [r4_13_JUSTAS]	< -1 kcal/mol
SAGGSAGGSAGGSVVPPGAKVKVTLEGEEKVVEADSLSEIGEIKIGDKWVKVKKIEVEGSAGGSAGGSAGGS [r4_214_TrMRF]	< -1 kcal/mol
SAGGSAGGSAGGTIKELAKEAAKKNPGWVPIRIPLPNGNPWKIRVQVDEPGKNRIEIEPSAGGSAGGSAGGS [r10_395_TrROS]	< -1 kcal/mol
SAGGSAGGSAGGTISFPTSSGLIKVEDMTIEEAKEKLKKENPNAKVIKLPTPNVYLIEVKSAGGSAGGSAGG [r7_370_JUSTAS]	< -1 kcal/mol
SAGGSAGGSAGGTVEELAKQIQEEWQENGFKVEKVEVEDGTIKIEWKNGRQREIPFEKGSAGGSAGGSAGGS [r10_169_TrROS]	< -1 kcal/mol
SAGGSAGGSAGGWYISIEPKNKKEKTIMIPPGDPDILEELADNGDRVSIFDPKNGKEFKVSAGGSAGGSAGG [r7_430_TrROS]	< -1 kcal/mol
SAGGSAGGSAGKIRIDARPNGNWRAHYPGGKEHEFNSPDDIKDELEKKFPNFDIIEIEPWSAGGSAGGSAGG [r11_806_TrROS]	< -1 kcal/mol
SAGGSAGGSAGKKIEIDEANPEENMYRISFPDKRTHQFDSAEDLKEQIPPGIPVEIEPLKSAGGSAGGSAGG [r17_295_TrROS]	< -1 kcal/mol
SAGGSAGGSAGKTIMIRDPEALKKLPENQKIRIPDGKPFKIKKVEYVEENGWHRFTIKPESAGGSAGGSAGG [r11_316_TrROS]	< -1 kcal/mol
SAGGSAGGSAGLNVGDVVVEVEAGTEYEFLIPNPAKLVKVKVVPDPTTNELKVEEAKVYDLKSAGGSAGGSA [r18_222_TrMRF]	< -1 kcal/mol
SAGGSAGGSAGMLYRALVPHPDGSFSTALSEDARELERELLEATGIPPENIKIEPIPLETSAGGSAGGSAGG [r17_169_TrMRF]	< -1 kcal/mol

Source: the supplement of paper PMC12764529
